One may read the stoichiometry N as a count of units in the complex or per binding partner.

Series [1] deals with S. rosetta caveolin (Salpingoeca rosetta). Put plainly: cryo-EM structure; single-particle cryo-EM of the complex purified in C12M detergent; C11 symmetry applied in the final refinement.
Series [2] concerns the molecule itself. The series is described as above.

The molecule S. rosetta caveolin (natural protein) showed a stoichiometry N in series [1] of 11.

B1: S. purpuratus caveolin (natural protein, Strongylocentrotus purpuratus, UniProt A0A7M7T4C2 1-159, looked up)
chain: MELIHPENGPSGTVQVPLIQGVDQSDTEDVYRLSPHVTTGFADTFKESNDIMGFSFMEKVNGAIYKYTHFAFYAVLNLLLAPFIAFSFGLSFAVMHFAVVWFVQPIMKLYYVWLRVFNLAYEPALRLVCDPIHRSIALILSGIKGQFKMNSSDVKTSQV
notes: caveolin of Strongylocentrotus purpuratus (purple sea urchin), UniProt A0A7M7T4C2, entire polypeptide (residues 1-159); residues 29-152 modelled in the cryo-EM map; Cloned between NdeI and XhoI of pET20b(+) with a reverse primer without stop codon, so the His tag is probably C-terminal (surmised); also called Strongylocentrotus purpuratus caveolin; Type I-CAV; source: E. coli BL21, purified from …
For B1, the “stoichiometry N” value in series [2] came to 11.

The record behind these values is paper PMC12330381, “Evolutionarily diverse caveolins share a common structural framework built around amphipathic disks” (The Journal of Cell Biology, 2025).
